Test results taken from patent publication EP2747783B1 (Ablynx N.V., dated 2017).
Positions count from the first letter of the chain named. Names may count otherwise.

Key:
[1] = target: T1, human c-Met, cell membrane expressed (A549, BxPC-3, myeloma cells) (human, UniProt P08581 25-1390); experiment: cell-based or functional assay
[2] = target: T1, human c-Met, cell membrane expressed …; experiment: cell-based or functional assay; remark: listed apart in the source
[3] = target: T2, recombinant human c-Met/Fc chimera (R&D systems) (human); experiment: SPR (ProteOn); c-Met/Fc captured by anti-human IgG(Fc)
T2 construct: Bought protein; also called hc-Met/Fc; hu c-Met/Fc
T2 sequence (chain, as listed by the source mutant limits assumed): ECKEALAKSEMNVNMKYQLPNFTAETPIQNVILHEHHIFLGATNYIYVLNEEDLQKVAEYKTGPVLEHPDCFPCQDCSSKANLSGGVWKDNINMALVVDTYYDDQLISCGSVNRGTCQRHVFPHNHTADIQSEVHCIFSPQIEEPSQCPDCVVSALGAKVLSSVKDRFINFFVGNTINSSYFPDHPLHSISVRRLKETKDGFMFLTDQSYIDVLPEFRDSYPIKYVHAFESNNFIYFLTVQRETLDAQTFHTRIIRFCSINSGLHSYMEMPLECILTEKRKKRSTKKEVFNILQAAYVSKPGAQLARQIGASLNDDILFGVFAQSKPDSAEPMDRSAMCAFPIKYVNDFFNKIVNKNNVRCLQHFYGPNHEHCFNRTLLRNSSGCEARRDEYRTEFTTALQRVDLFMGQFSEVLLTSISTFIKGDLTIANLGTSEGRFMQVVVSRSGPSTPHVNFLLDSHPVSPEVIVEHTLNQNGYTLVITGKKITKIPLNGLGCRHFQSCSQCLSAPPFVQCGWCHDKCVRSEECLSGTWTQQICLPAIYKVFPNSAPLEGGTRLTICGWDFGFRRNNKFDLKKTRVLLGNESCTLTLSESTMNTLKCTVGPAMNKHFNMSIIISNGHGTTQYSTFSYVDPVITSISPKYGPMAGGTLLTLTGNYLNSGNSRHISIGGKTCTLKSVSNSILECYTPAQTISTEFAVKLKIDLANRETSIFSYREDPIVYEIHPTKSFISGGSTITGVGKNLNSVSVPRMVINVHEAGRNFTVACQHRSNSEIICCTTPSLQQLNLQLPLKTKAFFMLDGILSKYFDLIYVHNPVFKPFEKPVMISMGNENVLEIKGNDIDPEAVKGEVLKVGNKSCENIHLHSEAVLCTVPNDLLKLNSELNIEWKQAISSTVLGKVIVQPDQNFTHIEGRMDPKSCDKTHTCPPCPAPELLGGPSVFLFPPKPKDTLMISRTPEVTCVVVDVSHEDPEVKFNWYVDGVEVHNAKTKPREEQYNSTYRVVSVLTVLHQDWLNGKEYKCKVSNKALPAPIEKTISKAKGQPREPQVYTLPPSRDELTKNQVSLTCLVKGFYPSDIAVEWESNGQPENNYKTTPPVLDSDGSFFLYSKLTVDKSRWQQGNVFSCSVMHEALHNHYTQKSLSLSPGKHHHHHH

[4] = target: T1, human c-Met, cell membrane expressed …; experiment: cell-based or functional assay; remark: listed apart in the source
[5] = target: T2, recombinant human c-Met/Fc chimera (R&D …); experiment: Alphascreen; competition with 100 pM biotinylated hHGF for c-MET/Fc

T1 sequence (P08581 25-1390 limits assumed, form in doubt): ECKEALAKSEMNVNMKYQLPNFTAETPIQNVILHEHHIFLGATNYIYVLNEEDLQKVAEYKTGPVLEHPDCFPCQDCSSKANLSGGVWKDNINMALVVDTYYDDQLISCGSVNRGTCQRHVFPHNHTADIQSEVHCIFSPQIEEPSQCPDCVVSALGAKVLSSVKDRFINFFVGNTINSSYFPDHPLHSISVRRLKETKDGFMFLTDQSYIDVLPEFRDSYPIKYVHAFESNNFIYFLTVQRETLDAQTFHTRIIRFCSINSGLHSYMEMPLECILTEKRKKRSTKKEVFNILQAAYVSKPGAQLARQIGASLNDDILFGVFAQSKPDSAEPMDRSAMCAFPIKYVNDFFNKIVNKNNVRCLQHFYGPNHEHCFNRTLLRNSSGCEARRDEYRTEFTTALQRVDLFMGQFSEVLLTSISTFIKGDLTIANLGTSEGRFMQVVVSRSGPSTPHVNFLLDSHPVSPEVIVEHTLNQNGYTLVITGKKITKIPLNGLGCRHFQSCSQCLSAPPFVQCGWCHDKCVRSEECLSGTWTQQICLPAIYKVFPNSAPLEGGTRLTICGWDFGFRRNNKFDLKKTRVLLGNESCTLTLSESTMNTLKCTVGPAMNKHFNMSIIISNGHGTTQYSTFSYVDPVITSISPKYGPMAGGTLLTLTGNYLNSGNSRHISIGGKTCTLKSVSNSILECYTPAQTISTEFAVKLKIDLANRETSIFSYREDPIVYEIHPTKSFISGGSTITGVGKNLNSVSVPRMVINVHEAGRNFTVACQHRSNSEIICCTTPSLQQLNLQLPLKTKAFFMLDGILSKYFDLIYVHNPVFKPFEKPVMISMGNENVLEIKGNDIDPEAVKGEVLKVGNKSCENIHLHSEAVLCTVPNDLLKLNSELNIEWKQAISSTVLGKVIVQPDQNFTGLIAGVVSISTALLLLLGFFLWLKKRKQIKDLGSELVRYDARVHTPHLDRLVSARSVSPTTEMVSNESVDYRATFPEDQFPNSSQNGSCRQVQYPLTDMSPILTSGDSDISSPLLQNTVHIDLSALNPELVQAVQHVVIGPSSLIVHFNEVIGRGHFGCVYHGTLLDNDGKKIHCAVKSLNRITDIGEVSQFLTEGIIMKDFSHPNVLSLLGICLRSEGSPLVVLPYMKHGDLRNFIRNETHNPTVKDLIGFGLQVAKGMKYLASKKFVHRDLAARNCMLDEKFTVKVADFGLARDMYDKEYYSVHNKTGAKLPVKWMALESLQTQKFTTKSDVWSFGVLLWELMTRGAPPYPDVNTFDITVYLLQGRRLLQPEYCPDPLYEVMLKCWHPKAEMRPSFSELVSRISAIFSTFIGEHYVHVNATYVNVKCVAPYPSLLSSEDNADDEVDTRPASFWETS

B1: 04E09(L49S) (SEQ ID NO: 23) tagged with 3xFlag-His6 (VHH)
VHH: EVQLVESGGGLVQPGGSLRLSCAASGFILDYYAIGWFRQAPGKEREGVSCIDASDDITYYADSVKGRFTISRDNAKNTVYLQMNSLKPEDTGVYYCATPIGLSSSCLLEYDYDYWGQGTLVTVSS
IC50, HGF-dependent c-Met phosphorylation [1]: 3.1 nM

B2: A007900184 (33H10-3xFLAG-His6) (VHH)
VHH: EVQLVESGGGLVQAGGSLRLSCAASGFTFDDYAIGWFRQAPGEEREGVSSISSTYGLTYYADSVKGRFTISSSNAKNTVYLQMNNLKPEDTAVYYCAATPIERLGLDAYEYDYWGQGTLVTVSS
IC50, c-Met phosphorylation [2]: 79 nM

B3: A007901250 (VHH)
VHH: B2 VHH with A14P, T28A, E46L, S73D, A75S, N85S, K87R, E102G, R103L, L104I
IC50, Proliferation assay, plate 1 [2]: 2.29 nM
IC50, Proliferation assay, plate 2 [2]: 1.32 nM
IC50, c-Met phosphorylation [2]: 2.34 nM

B4: A007901252 (VHH)
VHH: EVQLVESGGGLVQPGGSLRLSCAASGFAFDDYAIGWFRQAPGKERLGVSSISSTYGLTYYADSVKGRFTISSDNSKNTVYLQMNSLRPEDTAVYYCAATPIGLIGLDAYEYDYWGQGTLVTVSS
IC50, c-Met phosphorylation [2]: 4.16 nM

B5: A007901247 (VHH)
VHH: B4 VHH with A28T, L46E
IC50, c-Met phosphorylation [2]: 12.8 nM

B6: A007901251 (VHH)
VHH: B4 VHH with A28T
IC50, c-Met phosphorylation [2]: 4.98 nM

B7: A007901253 (VHH)
VHH: B4 VHH with A28T, K43E, L46E, S63P
IC50, c-Met phosphorylation [2]: 4.84 nM

B8: A007901248 (VHH)
VHH: B4 VHH with L46E
IC50, c-Met phosphorylation [2]: 11.5 nM

B9: A007901249 (VHH)
VHH: B4 VHH with A28T, K43E
IC50, Proliferation assay, plate 2 [2]: 1.93 nM
IC50, c-Met phosphorylation [2]: 2.81 nM

B10: A007901245 (VHH)
VHH: B4 VHH with A28T, K43E, L46E
IC50, Proliferation assay, plate 1 [2]: 3.69 nM
IC50, c-Met phosphorylation [2]: 5.41 nM

B11: A007901246 (VHH)
VHH: B4 VHH with K43E, L46E
IC50, Proliferation assay, plate 1 [2]: 1.88 nM
IC50, c-Met phosphorylation [2]: 3.44 nM

B12: 04E09(C22A/C92S) (SEQ ID NO: 25) tagged with 3xFlag-His6 (VHH)
VHH: EVQLVESGGGLVQPGGSLRLSAAASGFILDYYAIGWFRQAPGKEREGVLCIDASDDITYYADSVKGRFTISRDNAKNTVYLQMNSLKPEDTGVYYSATPIGLSSSCLLEYDYDYWGQGTLVTVSSGAADYKDHDGDYKDHDIDYKDDDDKGAAHHHHHH
IC50, HGF-dependent c-Met phosphorylation [1]: 3.8 nM

B13: 04E09(C50S/C100bG) (SEQ ID NO: 24) tagged with 3xFlag-His6 (VHH)
VHH: B1 VHH with S49L, C50S, C106G
fold lower on-rate and off-rates against 04E09-9GS-Alb11 and 04E09 (C22A/C92S) [3]: 10 fold

B14: A007901219 (A00790105-9GS-Alb23) (bispecific antibody)
chain: DVQLVESGGGLVQPGGSLRLSCAASGFILDYYAIGWFRQAPGKEREGVLCIDASDDITYYADSVKGRFTISRDNSKNTVYLQMNSLRPEDTAVYYCATPIGLSSSCLLEYDYDYWGQGTLVTVSSGGGGSGGGSEVQLLESGGGLVQPGGSLRLSCAASGFTFRSFGMSWVRQAPGKGPEWVSSISGSGSDTLYADSVKGRFTISRDNSKNTLYLQMNSLRPEDTAVYYCTIGGSLSRSSQGTLVTVSS
notes: also called A007901219 (Alb23)
IC50, cMET phosphorylation assay, + HSA [4]: 4.2 nM
IC50, cMET phosphorylation assay, - HSA [4]: 5.41 nM
fold improved potency as compared to 5D5 Fab v2 [5]: > 5 fold
